The source of these data is patent US12364768B2, “Nectin-4 antibody conjugates and uses thereof” (ARARIS BIOTECH AG, priority 2020, dated 2025).

One assay deals with T1, mouse Nectin-4 (Mus musculus, UniProt Q8R007).
T1 sequence (Q8R007 31-508): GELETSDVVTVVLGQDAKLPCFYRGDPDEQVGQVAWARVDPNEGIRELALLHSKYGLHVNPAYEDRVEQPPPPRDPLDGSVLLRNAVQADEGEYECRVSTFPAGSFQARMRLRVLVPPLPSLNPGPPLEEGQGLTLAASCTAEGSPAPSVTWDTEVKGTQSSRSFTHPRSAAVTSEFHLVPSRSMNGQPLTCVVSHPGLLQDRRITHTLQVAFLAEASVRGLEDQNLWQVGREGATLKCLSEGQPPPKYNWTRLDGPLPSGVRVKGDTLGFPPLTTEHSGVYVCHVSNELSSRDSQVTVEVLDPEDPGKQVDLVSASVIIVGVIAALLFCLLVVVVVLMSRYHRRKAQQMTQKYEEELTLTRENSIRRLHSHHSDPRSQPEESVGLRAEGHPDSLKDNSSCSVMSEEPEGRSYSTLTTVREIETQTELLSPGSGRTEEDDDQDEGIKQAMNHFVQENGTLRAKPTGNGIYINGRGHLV
In words: Binding of purified humanized D6C mAbs to mouse Nectin-4. Particulars: mAb of hzD6C VH with the named VL. How it is done: The humanized D6C VH region was combined with human IgG1 (SEQ ID NO:18) heavy chain constant region, and each humanized D6C VL region was combined individually with the human kappa light chain constant region (SEQ ID NO:20). The humanized D6C heavy chain (SEQ ID NO:24) was co-transfected with each humanized light chain (SEQ ID NOS:26-31) individually into CHO cells in a 30 mL culture, using the parental chimeric antibody, D6C, as a benchmark. A total of 7 mAbs were generated, purified, and analyzed for titer, purity, and binding.
Analytical size-exclusion chromatography was used to measure the percent purity (% protein of interest, POI), which is preferably 95% or greater. There was a reduction in percent purity seen with the chimeric D6C (84%) and the CDR grafted hzD6C VL (94%). The I2V, N33Q, and G34A mutations in hzD6.1C VL (98%), hzD6.2C VL (95%), and hzD6.3C VL (96%), respectively, as well as the […] N33Q double mutation hzD6.4C VL (99%), resolve the purity issue.

The target of assay [1] is T2, TIGIT binding to Nectin-4 expressing T24 tumor cells (Homo sapiens, UniProt Q96NY8).
T2 construct: expressed in transfected cells; host or cells: T24 clone, lentiviral transduction
T2 sequence (Q96NY8 32-510): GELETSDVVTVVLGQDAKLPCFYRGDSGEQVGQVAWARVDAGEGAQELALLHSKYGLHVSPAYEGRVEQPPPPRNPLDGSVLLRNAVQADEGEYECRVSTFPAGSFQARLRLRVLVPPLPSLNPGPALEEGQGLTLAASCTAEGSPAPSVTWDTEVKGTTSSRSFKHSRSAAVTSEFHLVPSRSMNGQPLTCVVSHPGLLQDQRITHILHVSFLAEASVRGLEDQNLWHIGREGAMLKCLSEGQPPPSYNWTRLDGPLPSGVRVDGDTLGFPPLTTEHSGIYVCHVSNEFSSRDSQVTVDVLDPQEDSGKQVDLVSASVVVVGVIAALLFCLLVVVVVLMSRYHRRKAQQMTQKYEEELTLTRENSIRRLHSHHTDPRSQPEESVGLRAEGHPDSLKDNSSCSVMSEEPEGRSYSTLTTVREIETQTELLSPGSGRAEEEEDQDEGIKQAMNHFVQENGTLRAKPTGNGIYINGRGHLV
In words: Blocking of TIGIT-Fc binding to Nectin-4 expressing T24 tumor cells. It is filed as cell-based. Particulars: rhTIGIT-Fc 40 nM; antibody at various concentrations from 400 nM, 1:2 dilutions. An excerpt: Anti-Nectin-4 antibody was examined to determine whether it could block binding of TIGIT to Nectin-4 expressing T24 tumor cells. Stable Nectin-4 expression in a T24 clone was achieved by Nectin4-lentiviral transduction. Recombinant human TIGIT-Fc chimera was purchased from R & D Systems. Briefly, cell binding was examined on Nectin-4 expressing T24 cells, which were dispensed into wells of V-bottom 96-well assay plates (1×10^5 cells/well), spun down, and the supernatant discarded. The cells were incubated with an anti-Nectin-4 antibody (hzD6.2C-mIgG2a) or an isotype control (mIgG2a) at eight different concentrations, starting with 400 nM and then 1:2 serial dilution, incubated at 4° C. for 30 min., and then rhTIGIT-Fc was added to each well at a final concentration of 40 nM. The treated cells were incubated at 4° C. for 30 min., washed three times, and then commercial PE anti-human Fc as a secondary antibody (1:200 dilution) was added and incubated at 4° C. for 20 min. The cells were washed twice and analyzed on BD Celesta™ flow cytometry. Percent of inhibition of TIGT (40 nM) binding due to anti-Nectin-4 antibody present was measured.

B1: hzD6.3C VL: "CDR1 mutation to remove a potential deamidation site ... hzD6.3C VL N33Q (position 30c under Kabat), SEQ ID NO:15" (antibody, V domains shown)
VL: DIVMTQTPLSLPVTPGEPASISCRSSQSIVHSQGNTYLEWYLQKPGQSPQLLIYKVSNRFSGVPDRFSGSGSGTDFTLKISRVEAEDVGVYYCFQGSHVPYTFGGGTKVEIK
modifications: Synthetic sequence hzD6.3C VL
Regarding B1, the “binding to mouse Nectin-4” value with mouse Nectin-4 is listed as “no binding”.

B2: hzD6.4C VL: "a FR1 and a CDR1 mutation (hzD6.4C VL I2V N33Q (positions 2 and 30c under Kabat), SEQ ID NO:16" (antibody, V domains shown)
VL: DVVMTQTPLSLPVTPGEPASISCRSSQSIVHSQGNTYLEWYLQKPGQSPQLLIYKVSNRFSGVPDRFSGSGSGTDFTLKISRVEAEDVGVYYCFQGSHVPYTFGGGTKVEIK
modifications: Synthetic sequence hzD6.4C VL
Regarding B2, in the assay with mouse Nectin-4, the “binding to mouse Nectin-4” value is given as “no binding”.

B3: hzD6.2C-mIgG2a: "an anti-Nectin-4 antibody (hzD6.2C-mIgG2a)" (antibody, V domains shown)
VH: EVQLVESGGGLVQPGGSLRLSCAASGFTFSNYDMSWVRQAPGKGLEWVATISSGGSYTYYVDSVKGRFTISRDNAKNSLYLQMNSLRAEDTAVYYCARQELGSYYAMDYWGQGTTVTVSS
VL: DIVMTQTPLSLPVTPGEPASISCRSSQSIVHSNANTYLEWYLQKPGQSPQLLIYKVSNRFSGVPDRFSGSGSGTDFTLKISRVEAEDVGVYYCFQGSHVPYTFGGGTKVEIK
Turning to B3, the “blocking of TIGIT binding” value in assay [1] is listed as “more than 70%”.
